As usually defined, the IC50 is the point on the concentration scale where inhibition reaches its midpoint. A higher IC50 goes with lower potency.

Test [1] concerns the target T1, human SEMA4A expressed on cells (UniProt ID Q9H3S1, isoform 1) (human, UniProt Q9H3S1 33-761).
T1 construct: Cell-surface SEMA4A: endogenous on MM.1S, NCI-H929 and Karpas-25 cells, or expi293 cells transfected with Origene SC323738; also called human Semaphorin4A; SEMA4A endogenously expressed on MM.1S cells
T1 sequence: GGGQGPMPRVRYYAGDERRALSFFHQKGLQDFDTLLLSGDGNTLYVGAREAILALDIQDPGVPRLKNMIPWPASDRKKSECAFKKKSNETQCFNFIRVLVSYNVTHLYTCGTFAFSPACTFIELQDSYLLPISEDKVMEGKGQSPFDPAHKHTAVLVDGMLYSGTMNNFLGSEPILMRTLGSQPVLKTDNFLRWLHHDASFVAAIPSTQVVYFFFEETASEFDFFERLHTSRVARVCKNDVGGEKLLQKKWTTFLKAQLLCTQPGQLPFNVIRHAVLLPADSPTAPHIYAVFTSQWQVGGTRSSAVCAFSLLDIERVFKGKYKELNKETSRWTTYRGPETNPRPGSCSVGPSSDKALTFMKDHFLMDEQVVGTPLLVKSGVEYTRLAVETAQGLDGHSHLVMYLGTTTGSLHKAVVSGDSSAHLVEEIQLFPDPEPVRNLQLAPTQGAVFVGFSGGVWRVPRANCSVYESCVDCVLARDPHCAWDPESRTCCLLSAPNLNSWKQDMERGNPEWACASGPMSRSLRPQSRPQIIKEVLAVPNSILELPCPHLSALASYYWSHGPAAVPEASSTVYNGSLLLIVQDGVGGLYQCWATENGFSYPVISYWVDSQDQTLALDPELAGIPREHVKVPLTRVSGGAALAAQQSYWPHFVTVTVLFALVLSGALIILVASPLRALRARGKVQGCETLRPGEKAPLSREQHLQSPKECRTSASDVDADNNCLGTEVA
Put plainly: Mirrorball epitope competition on MM.1S cells; competitor: fixed 5E3 mouse IgG1. The source says: The 5E3 epitope competition assay assessed the ability of the un-purified IgGs expressed in a human IgG1 backbone to compete for binding to the mouse 5E3 epitope on human SEMA4A endogenously expressed by MM.1S cells, a human multiple myeloma cell line. The assay utilised a secondary-Alexa Fluor 647 conjugate, 5E3 expressed in a mouse IgG1 (A) backbone (BioLegend®, San Diego, CA, 148402) and a Mirrorball fluorescence cytometer (SPT Labtech, UK). Binding of 5E3 mouse IgG1 to MM.1S cells was measured via an anti-mouse secondary labelled with Alexa Fluor 647 (Invitrogen, A21235) in the presence of a single concentration of each un-purified human IgG1. […] 10 μl undiluted un-purified IgG, contained in Expi293 expression medium (Gibco, UK, A1435101), were added to the assay plate (Greiner Bio-one, UK, 781906), followed by 10 ul of 1.2 nM 5E3 mouse IgG1 and 20 μl MM.1S cell suspension containing 1,500 cells that was spiked with 4 nM anti-mouse Alexa Fluor 647. The assay plate was incubated for 4 hours at room temperature, in the dark prior to reading on a Mirrorball fluorescence cytometer (SPT Labtech, UK) using a 640 nm laser for excitation and measuring emission in the FL-4 channel (650-690 nm). Data was analysed as Count x median mean intensity (x FLU). All dilutions were performed in Hanks' balanced salt solution (Sigma, UK; cat: H8264) containing 0.1% (w/V) BSA (Sigma, UK; cat: A9576). Maximum binding signal was determined by analysing the binding of 5E3 mouse IgG1 to MM.1S cells in the absence of competitor un-purified human IgG1. Background binding signal was determined by analysing the fluorescence generated in the absence of 5E3 mouse IgG1. Data were analysed and graphed using GraphPad Prism software (GraphPad Software, Inc, La Jolla, CA).
Hits from the primary screening were re-formatted into the human Alya IgG1 vector and re-expressed and purified as described in section 4.1. 5E3 epitope competition assay methods are described in section 3.2 and were used to test purified human Alya IgG1s. The purified human Alya IgG1s were diluted to a 4× stock and then serially diluted using 4-fold dilutions to generate a 10 point concentration response curve.

In test [2] the target is T2, mouse SEMA4A expressed on expi293 cells (UniProt ID Q62178) (mouse, UniProt Q62178 33-760).
T2 construct: Transient transfection in expi293 cells
T2 sequence: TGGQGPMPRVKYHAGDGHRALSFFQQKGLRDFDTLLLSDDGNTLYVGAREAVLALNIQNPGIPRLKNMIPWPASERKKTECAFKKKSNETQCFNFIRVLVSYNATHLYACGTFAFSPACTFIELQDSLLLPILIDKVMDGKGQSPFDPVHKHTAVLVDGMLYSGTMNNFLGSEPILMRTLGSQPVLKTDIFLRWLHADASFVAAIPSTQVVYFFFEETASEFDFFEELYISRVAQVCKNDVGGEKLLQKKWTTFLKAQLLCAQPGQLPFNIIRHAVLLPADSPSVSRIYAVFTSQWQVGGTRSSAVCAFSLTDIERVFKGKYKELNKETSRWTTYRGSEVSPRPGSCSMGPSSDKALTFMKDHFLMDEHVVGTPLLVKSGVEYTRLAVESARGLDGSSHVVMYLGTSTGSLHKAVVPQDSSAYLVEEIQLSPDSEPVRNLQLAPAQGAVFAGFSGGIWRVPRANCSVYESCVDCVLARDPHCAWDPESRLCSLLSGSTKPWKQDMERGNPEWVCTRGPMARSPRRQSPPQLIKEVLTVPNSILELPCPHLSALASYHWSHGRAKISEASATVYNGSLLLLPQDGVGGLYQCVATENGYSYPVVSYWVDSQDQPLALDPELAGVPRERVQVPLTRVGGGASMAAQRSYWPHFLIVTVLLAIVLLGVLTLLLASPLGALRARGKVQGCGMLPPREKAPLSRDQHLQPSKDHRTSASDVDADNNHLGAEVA
Put plainly: Mirrorball direct binding, dilution series on expi293 cells transiently transfected with mouse SEMA4A, anti-human Alexa Fluor 647.

In test [3] the target is T1, human SEMA4A expressed on cells …. Put plainly: cell-based or functional assay.

B1: mouse 5E3 expressed as human IgG1 Alya (antibody, V domains shown)
VH: QVQLQQPGAELVMPGASVKMSCKASGYTFTDYWMHWVKQRPGQGLEWIGAIDTSDSYTSYNQKFKGKATLTVDESSSTAYMQLSSLTSEDSAVYYCARDYGNFYYYAMDYWGQGTSVTVSS
VL: QAVVTQESALTTSPGETVTLTCRSSTGAVTTSNYANWVQEKPDHLFTGLIGGTNNRAPGVPARFSGSLIGDKAALTITGAQTEDEAIYFCALWYSNHWVFGGGTKLTVL
notes: Mouse variable domains on human IgG1 Alya constant (pEU1.22; 239iCys and S442C, EU numbering); purified, unconjugated; also called 5E3 IgG1 Alya
For B1, the concentration for half-maximal inhibition (IC50) in test [1] was found to be 0.3 nM. Also, the binding result in test [2] is “binds”. In addition, in test [3], the “IC50 (pM), Fab-ZAP cell kill, NCI-H929” value is 38 pM and the “Max % Cell Kill, Fab-ZAP, NCI-H929” value is 89%.

B2: C0120914 human Alya IgG1 (antibody, V domains shown)
VH: QVQLQESGPGLVKPSETLSLTCTVSGGSVSSGRYDWSWIRQPPGKGLEWIGHIYYTGITDYNPSLRSRVTISADKPKNQFSLKLNSVTAADTAVYYCARGPFFDPWGQGTMVTVSS
VL: QSVLTQPPSVSVAPGQTASLTCGANNIGSKSVQWYQQKPGQAPVLVVYDGSDRPSGIPDRFSGSSSENTATLTISRVEAGDEADYYCQLWDSVTDRPVFGGGTKVTVL
notes: Fully human, phage display derived; human IgG1 Alya constant (239iCys, S442C, EU); unconjugated
Turning to B2, the binding result in test [2] is given as “binds”.

B3: C0120905 human Alya IgG1 (antibody, V domains shown)
VH: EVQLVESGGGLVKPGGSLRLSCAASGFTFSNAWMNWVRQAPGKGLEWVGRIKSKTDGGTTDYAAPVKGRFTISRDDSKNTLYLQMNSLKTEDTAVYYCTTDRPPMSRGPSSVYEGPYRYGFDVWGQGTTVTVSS
VL: NFMLTQPHSVSESPGKTVTISCTGSGGNIVDNFVQWHQQRPGSAPRTVIYEDDQRPSGVPDRFSASVDSSSNSGTLSISGLKTEDEADYYCQSYDGANRWVFGGGTKLTVL
notes: as for B2
Regarding B3, the binding result in test [2] is “binds”.

B4: C0120906 human Alya IgG1 (antibody, V domains shown)
VH: EVQLVQSGPEVKKPGASVKISCKASGYKLNDPGVHGVSWVRQAPGQGLEWMGWISTLNGDTRYAQKFQGRVTMATDSSTSTIYMDLRSLKSDDTALYYCARDDYTAIFDFWGRGTLVTVSS
VL: QSVLTQPPSVSVAPGQTASITCGGSNIGSQSVHWYQQKPGQAPVLVVYDDSDRPSGIPERFSGSKSGNTASLILSRVEAGDEADYYCQVWDSSTDHHVFGTGTKVTVL
notes: as for B2
With B4, the binding result in test [2] is on record as “binds”.

B5: C0120918 human Alya IgG1 (antibody, V domains shown)
VH: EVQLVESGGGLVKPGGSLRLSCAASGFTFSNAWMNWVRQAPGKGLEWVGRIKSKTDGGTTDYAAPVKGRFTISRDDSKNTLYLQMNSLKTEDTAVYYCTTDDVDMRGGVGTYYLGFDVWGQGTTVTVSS
VL: SYELTQPPSVSVSPGQTARITCSGDALPKQYAYWYQQKPGQAPVLVIYKDSERPSGIPERFSGSSSGTTVTLTISGVQAEDEADYYCQSADSSGTWVFGGGTKVTVL
notes: as for B2
Turning to B5, the binding result in test [2] is recorded as “binds”.

B6: C0120917 human Alya IgG1 (antibody, V domains shown)
VH: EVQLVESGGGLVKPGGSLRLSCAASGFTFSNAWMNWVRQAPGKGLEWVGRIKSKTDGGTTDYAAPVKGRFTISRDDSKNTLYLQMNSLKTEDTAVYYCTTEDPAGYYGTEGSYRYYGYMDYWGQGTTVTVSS
VL: NFMLTQPHSVSESPGKTVTISCTASGDTLDNKYVNWYQVRPGSAPATLIFHYEERDSGVPDRFSGSFDASSNSASLTISGLQTADEADYFCQSYDSKRDNLVVFGGGTKVTVL
notes: as for B2
With B6, the binding result in test [2] is given as “binds”.

B7: C0120903 human Alya IgG1 (antibody, V domains shown)
VH: EVQLVQSGAEVKKPGSSMKVSCKASGGTFNSYTINWVRQAPGQGLEWVGGFIPIFGTADYAQKFHGRVAITADESMSTAYMELSSLRSEDTAVYYCARAPLGSEPFDYWGQGTMVTVSS
VL: SYVLTQPPSVSVAPGQTARITCGGNNIGSKSVHWYQQKPGQAPVLVVYDDSDRPSGIPERFSGSNSGNTATLTISRVEAGDEADYYCQVWDSSSDHLVFGGGTKLTVL
notes: as for B2
As for B7, the binding result in test [2] is reported as “binds”.

B8: 5Hg2-5Lg1 human Alya IgG1 (antibody, V domains shown)
VH: QVQLVQSGAEVKKPGASVKVSCKASGYTFTDYWMHWVRQAPGQRLEWMGAIDTSDSYTSYNQKFKGRVTITRDTSASTAYMELSSLRSEDTAVYYCARDYGNFYYYAMDYWGQGTLVTVSS
VL: QAVVTQEPSLTVSPGGTVTLTCRSSTGAVTTSNYANWFQQKPGQAPRTLIYGTNNRAPWTPARFSGSLLGGKAALTLSGAQPEDEAEYYCALWYSNHWVFGGGTKLTVL
notes: Humanised 5E3; human IgG1 Alya constant (239iCys, S442C, EU), lambda light chain; purified, unconjugated
Consider B8, for which the IC50 in test [1] was 1.1 nM. Besides, in test [2], the binding result is listed as “binds”. Besides, in test [3], the “IC50 (pM), Fab-ZAP cell kill, NCI-H929” value amounted to 38 pM and the “Max % Cell Kill, Fab-ZAP, NCI-H929” value came out at 78%.

B9: 5Hg2-5Lg2 human Alya IgG1 (antibody, V domains shown)
VH: QVQLVQSGAEVKKPGASVKVSCKASGYTFTDYWMHWVRQAPGQRLEWMGAIDTSDSYTSYNQKFKGRVTITRDTSASTAYMELSSLRSEDTAVYYCARDYGNFYYYAMDYWGQGTLVTVSS
VL: QAVVTQEPSLTVSPGGTVTLTCRSSTGAVTTSNYANWFQQKPGQAPRTLIYGTNNRAPWTPARFSGSLLGGKAALTLLGAQPEDEAEYYCALWYSNHWVFGGGTKLTVL
notes: as for B8
For the molecule B9, in test [1], the IC50 came to 1.1 nM. Moreover, the binding result in test [2] was “binds”. For the same molecule, in test [3], the “IC50 (pM), Fab-ZAP cell kill, NCI-H929” value amounted to 52 pM and the “Max % Cell Kill, Fab-ZAP, NCI-H929” value was 83%.

B10: 5Hg1-5Lg2 human Alya IgG1 (antibody, V domains shown)
VH: QVQLVQSGAEVKKPGASVKVSCKASGYTFTDYWMHWVRQAPGQGLEWMGAIDTSDSYTSYNQKFKGRVTMTRDTSTSTVYMELSSLRSEDTAVYYCARDYGNFYYYAMDYWGQGTLVTVSS
VL: QAVVTQEPSLTVSPGGTVTLTCRSSTGAVTTSNYANWFQQKPGQAPRTLIYGTNNRAPWTPARFSGSLLGGKAALTLLGAQPEDEAEYYCALWYSNHWVFGGGTKLTVL
notes: as for B8
In turn, B10 showed an IC50 in test [1] of 2.1 nM. In test [2], the binding result is listed as “binds”. In test [3], the “IC50 (pM), Fab-ZAP cell kill, NCI-H929” value worked out at 74 pM and the “Max % Cell Kill, Fab-ZAP, NCI-H929” value was determined as 74%.

B11: 5Hg1-5Lg1 human Alya IgG1 (antibody, V domains shown)
VH: QVQLVQSGAEVKKPGASVKVSCKASGYTFTDYWMHWVRQAPGQGLEWMGAIDTSDSYTSYNQKFKGRVTMTRDTSTSTVYMELSSLRSEDTAVYYCARDYGNFYYYAMDYWGQGTLVTVSS
VL: QAVVTQEPSLTVSPGGTVTLTCRSSTGAVTTSNYANWFQQKPGQAPRTLIYGTNNRAPWTPARFSGSLLGGKAALTLSGAQPEDEAEYYCALWYSNHWVFGGGTKLTVL
notes: as for B8
Take B11: in test [1], the IC50 amounted to 2 nM. Moreover, in test [2], the binding result is given as “binds”. Besides, in test [3], the “IC50 (pM), Fab-ZAP cell kill, NCI-H929” value came to 66 pM and the “Max % Cell Kill, Fab-ZAP, NCI-H929” value was 76%.

The record behind these values is patent US20250152729A1 (CANCER RESEARCH TECHNOLOGY, published 2025).
